# Data: patent publication US20250249118A1 (Eli Lilly, published 2025)
# T1: cynomolgus TfR ECD (cynomolgus)
# T1 chain: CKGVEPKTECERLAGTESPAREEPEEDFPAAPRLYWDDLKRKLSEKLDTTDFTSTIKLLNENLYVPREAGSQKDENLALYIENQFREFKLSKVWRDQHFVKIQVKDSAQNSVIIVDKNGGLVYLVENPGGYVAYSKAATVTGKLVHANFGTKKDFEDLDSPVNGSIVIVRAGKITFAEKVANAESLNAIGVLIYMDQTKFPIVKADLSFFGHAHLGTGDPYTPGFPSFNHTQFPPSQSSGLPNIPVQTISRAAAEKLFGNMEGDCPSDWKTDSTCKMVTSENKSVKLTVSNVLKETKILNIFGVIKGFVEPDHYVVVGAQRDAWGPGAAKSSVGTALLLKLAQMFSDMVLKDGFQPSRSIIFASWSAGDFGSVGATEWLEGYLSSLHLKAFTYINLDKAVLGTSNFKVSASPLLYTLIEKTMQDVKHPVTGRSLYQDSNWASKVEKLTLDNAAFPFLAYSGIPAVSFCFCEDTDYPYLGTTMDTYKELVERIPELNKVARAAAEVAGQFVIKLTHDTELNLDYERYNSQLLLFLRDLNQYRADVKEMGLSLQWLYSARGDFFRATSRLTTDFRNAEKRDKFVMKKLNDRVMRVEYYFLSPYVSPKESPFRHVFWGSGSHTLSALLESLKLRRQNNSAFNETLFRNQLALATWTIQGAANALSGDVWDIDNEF
# B1: TBP4 (One Arm Heteromab 1, A378C) (antibody)
# heavy: EVQLVESGGGLVKPGGSLRLSCVASGFTFSSYSMNWVRQAPGKGLEWVSSISSSSSYIYYADSVKGRFTISRDNAKNSLYLQMNSLRAEDTAVYYCARRHGYSNSDAFDNWGQGTLVTVSSASTKGPSVFPLAPCSRSTSESTAALGCLVKDYFPEPVTVSWNSGALTSGVHTFPAVLQSSGLYSLSSVVTVPSSSLGTKTYTCNVDHKPSNTKVDKRVESKYGPPCPPCPAPEAAGGPSVFLFPPKPKDTLMISRTPEVTCVVVDVSQEDPEVQFNWYVDGVEVHNAKTKPREEQFNSTYRVVSVLTVLHQDWLNGKEYKCKVSNKGLPSSIEKTISKAKGQPREPQVSTLPPSQEEMTKNQVSLMCLVYGFYPSDICVEWESNGQPENNYKTTPPVLDSDGSFFLYSVLTVDKSRWQEGNVFSCSVMHEALHNHYTQKSLSLSLG
# light: DIQMTQSPSAMSASVGDRVTITCRASQGISHYLVWFQQKPGKVPKRLIYAASSLQSGVPSRFSGSGSGTEFTLTISSLQPEDFATYYCLQHNSYPWTFGQGTKVEIKRTVAAPSVFIFPPSDEQLKSGTASVVCLLNNFYPREAKVQWKVDNALQSGNSQESVTEQDSKDSTYSLSSTLTLSKADYEKHKVYACEVTHQGLSSPVTKSFNRGEC
# Fc: ESKYGPPCPPCPAPEAAGGPSVFLFPPKPKDTLMISRTPEVTCVVVDVSQEDPEVQFNWYVDGVEVHNAKTKPREEQFNSTYRVVSVLTVLHQDWLNGKEYKCKVSNKGLPSSIEKTISKAKGQPREPQVYTLPPSQGDMTKNQVQLTCLVKGFYPSDICVEWESNGQPENNYKTTPPVLDSDGSFFLASRLTVDKSRWQEGNVFSCSVMHEALHNHYTQKSLSLSLG
# notes: One-arm heteromab: HC1 with LC1, plus an Fc-only HC2; IgG4 PAA; also called OAH1; copies: 1 + 1 + 1
# How the values were obtained:
# human TfR ECD = target: T2, human TfR ECD (human, UniProt P02786 89-760); assay: SPR, Biacore 8K, 37 C, TfR ECD amine-coupled on CM4 chip, TBP as analyte, 2-state model; SEM 7.949 nM, n = 3
# T2 construct: extracellular domain; also called human Transferrin Receptor 1 extracellular domain
# Procedure: (§1) Target human and cynomologus TfR ECD's were immobilized on a CM4 chip (Cytiva P/N 29104989) using standard NHS-EDC amine coupling. The TfR binding proteins were prepared at a final concentration of 0.3, 0.1, 0.033, 0.01, 0.0033, 0.001, 0.00033, 0.0001 μM respectively by dilution of stock solution into running buffer.
# (§2) Binding analysis was performed in a multi-cycle kinetics manner. Each analysis cycle consists of (1) injection of the lowest to highest concentration proteins over all Fc at 50 μL/min for 140 seconds followed by return to buffer flow for 400 seconds to monitor dissociation phase; (2) regeneration of chip surfaces with injection of 3M magnesium chloride, for 30 seconds at 100 μL/min over all cells; and (3) equilibration of chip surfaces with a 50 μL (30-sec) injection of HBS-EP+. Data were processed using standard double-referencing and fit to a 2-state binding model using Biacore 8K Evaluation software, to determine the association rate (kₒₙ, M⁻¹ s⁻¹ units), dissociation rate (koff, s⁻¹ units), and Rₘₐₓ (RU units). The equilibrium dissociation constant (KD) is calculated from the relationship KD=koff/kₒₙ, and is in molar units.
# cynomolgus TfR ECD = target: T1, cynomolgus TfR ECD; assay: SPR, Biacore 8K, 37 C, TfR ECD amine-coupled on CM4 chip, TBP as analyte, 2-state model; SEM 2.565 nM, n = 3
# Procedure: as §1, §2
binder,measurement,setting,value
B1,Kd,human TfR ECD,154 nM
same,Kd,cynomolgus TfR ECD,300 nM
